Measured values published in the DeepSol protein solubility set.

Experiment: soluble on expression in E. coli; label from the status in PepcDB or PDB records

Soluble on expression in E. coli, not soluble:
MGSDKIHHHHHHMSTLRLLISDSYDPWFNLAVEECIFRQMPATQRVLFLWRNADTVVIGRAQNPWKECNTRRMEEDNVRLARRSSGGGAVFHDLGNTCFTFMAGKPEYDKTISTSIVLNALNALGVSAEASGRNDLVVKTVEGDRKVSGSAYRETKDRGFHHGTLLLNADLSRLANYLNPDKKKLAAKGITSVRSRVTNLTELLPGITHEQVCEAITEAFFAHYGERVEAEIISPNKTPDLPNFAETFARQSSWEWNFGQAPAFSHLLDERFTWGGVELHFDVEKGHITRAQVFTDSLNPAPLEALAGRLQGCLYRADMLQQECEALLVDFPEQEKELRELSAWMAGAVR
MGSDKIHHHHHHMSTSVLYHAFNLKGITYRATRFTGDVIEYFADVKEEYIRCPKCGQRKFTFKGQKTRSFHLGPMGRKRCFLVLSLHRIKCNTCDTLWWPDLPFMVGKHRFARSFALIVLDLLRFGTIRWVADYLGVGWDMIKEIHKLKLQRLYRNIPLHKVRYIGIDEFSIRKGHEYMTTVMDLSEGRILYATEGKGKEGILPFLKKLARKGKKLRAVAMDMGISFFSAVREALPNIDVVFDRYHIMALMNQGIENLRRNHQKELDDTGKQTLKGNRFLLLRNYDSLKPDHKERLDALMQANQPLFVMHSMKEQLRLFWEIPEYAQAVTFLDTWCKDAMLSGIKELVKVAKTLSGYRTAILNYFKHHITNAALEGTNNKIKTLKRQAYGFRDMEYFKLRLYHLHTQRYSLTG
MGSDKIHHHHHHMSVAHENARRIISDILGKQNIERVWFVGCGGSLTGFWPGKYFLDCEASKLAVGYITSNEFVHATPKALGKNSVVILASQQGNTAETVAAARVAREKGAATIGLVYQPDTPLCEYSDYIIEYQWARYPETVDPAQQKAAYSLWLALEILAQTEGYAQYDELVSAFGRFSDVVHGAQRQVQEDAQRFAAEWKDEKVVYMMGSGPSFGAAHQESICILLEMQWINSASIHSGEYFHGPFEITEPGTPFILLQSSGRTRPLDDRAIRFIERYQGKLQLIDADKLGIQDLSTDVGEYFCGLLHNCVLDVYNLALATARNHPLTTRRYMWKVEY
MGSDKIHHHHHHMSVGEAMDTEVRAAAQAVCLAFNENPEAVEPRVQAAIAAAAARINRYPFDAEPRVMRKLAEHFSCPEDNLMLVRGIDECFDRISAEFSSMRFVTAWPGFDGYRARIAVSGLRHFEIGLTDDLLLDPNDLAQVSRDDCVVLANPSNPTGQALSAGELDQLRQRAGKLLIDETYVDYSSFRARGLAYGENELVFRSFSKSYGLAGLRLGALFGPSELIAAMKRKQWFCNVGTLDLHALEAALDNDRAREAHIAKTLAQRRRVADALRGLGYRVASSEANFVLVENAAGERTLRFLRERGIQVKDAGQFGLHHHIRISIGREEDNDRLLAALAEYSDHS
MGSDKIHHHHHHMSVLQELTKKKYSSLKTMFDDKYCPTFVYSILDQTIPGAVYADDQTFPKSFFIGTESGIYFIAGDQGNRDFHDFIAGYYEEQVKSSKRFTLFSSSDTWDSVLKPILKDDLNQMRRAAFSYQPKSFKKTLQLPKGLVLKRIDEDIISHSTAFNSAYYEEYWNSVSQFASKGFGFAVLHGNHVVSECTSIFLGHNRAEMDIYTLEEYRGLGLAYCVANRFIAFCMENGIVPSWDCDICNNSSIALAAKLGFKTVTEYTIYYSG
MGSDKIHHHHHHMSVPLRAVQLTEPSLFLQEHPEVQFVDLLISDMNGVVRGKRIERNSLPKVFEKGINLPASLFALDITGSTVESTGLGLDIGDADRICYPIPGTLSMEPWQKRPTAQLLMTMHELEGEPFFADPREVLRQVVARFTEMELTIVAAFELEFYLIDQENVNGRPQPPRSPISGKRPQSVQVYSIDDLDEYVECLQDIIDGARAQGIPADAIVAESAPAQFEVNLHHVADPMKACDYAVLLKRLIKNIAYDHEMDTTFMAKPYPGQAGNGLHVHISLLDKHGNNIFTSEDPEQNAALRHAIGGVLETLPASMAFLCPNVNSYRRFGSQFYVPNAPSWGLDNRTVALRVPTGSPDAVRLEHRVAGADANPYLLLASVLAGVHHGLTNKVEPGAPIEGNSYEQLEPSLPNNLRDALRELDDSEILAKYIDPKYIDIFVACKESELEEFEYSISDLEYNWYLHTV
MGSDKIHHHHHHMSVSPEFTRGKIHDVVVKPLGKFLDERGWLAELFRSDETDPATMPVMAYVSMTRPGIVRGPHEHVDQTDWFCFIGPSNFKVYLWDSRPDSPTHGVKQTLFAGIDAPMSVIVPPGVVHAYKNVGGVDGIVFNAPNRLYAGEGKSSPVDEIRHEDVAGSPFILD
MGSDKIHHHHHHMSWHNKVVWSEGLFLRPQLFQQQERYLEHYAHRRAATLSPFFFGFSHYSLDSEALALGKVIVKSASGVFADGTPFDTPGSTPPPAPLTIRAEHLDQLIYLAVPVRVPNAEETTFDNAADSLARNFVFDTELRDTNSIGQGPKTVQLSNLRLRLVPEKELTDAWIGLALTRVKTIRADSSIVLDDTLIPPVAGFGASELLTSWLAKIHELTRLRANSLAIRLTGANGNAGTTAEVSDYLLLQTLNRYEPLLQHLRRVPTTSPADLYALLLSMAGELSTYLRTDSRRPLDSHPAYQHSTPHLCLKPLVDDTHVLLNAVLVRSAQSIELKELGHGMRNAVVDPVDMAGFTAVVLAVHAAMPPDLLQQQFAAQAKAGPSERLPDLVRGHLPGITLQALPVPPRQIPFNAGFVYYELARSGPLWDEVARHGGLALHVAGEFPSLKLELWGVRS
MGSDKIHHHHHHMSYRYNSVVDLIHKQISAGTLKVGDRLPSIRQLSLLTGFSTVTIHHAYELLESHGYCSARPRSGFYLVRTPLQQMGDFPHDGENSIEPISIVDFPHALLLSWQKRTLDAFGAPHPSADLFDCADVDRVMCRLLRRRKAIAANSVGGDPELRLQIAKRAAQRGVVTRPQDIVITGSAIQAFNLCLDALTDPGDVVLVESPSYFPALSSIKRRNLRVIEIYSHPVNGIDPDQLEHLVRNNEIRVAVLMASNHFPTGITYSEDRMKRIVSVAKKNDVTIIANSMLDDITYDSVTDNSLRKFDSGETVLQFSSFECGLSPQYGLGWIVAGKHSQKILAASYLGDYAPNDQRIQQAVAEYLSSRSHDRQLRRIRETLASRMERGLQLLADSLPTGCSVSRPTGGYMCWVRGPQKFTSMTAVLQLHKQNVSILPGSVFSAAARSFENFFALNLSFPWSAENEAKIGSIGDLIAQIVGR
MGSDKIHHHHHHMSYYLRSASLTNYVEVARAVGLDPHQFLRAAKISRDVLLDPDIRIPAKKVGRLLDDSARAAHVDDFGLRMAELRQVSNLGPLAFVVREQPTLRRALESMVRYMGVQNEALAMRMEESEGLLMIRLHILNDQPGTLRQATDLAVGVVYRLLSVCLGASWRPRSICFTHAAPASQATFQRVFGMPCVFNQDFDGIVCVAADLEAPLPSYDPVMAHQVKRYLGTLLAQANTTLPDKVRELVHVLLPSGMCSVDRVAQHLGVDRRTVHRRLAQENTSYSDIVNAARASLVVRYIDNRERPLSEVATLLGFSSLSAFSRWFGGQFGCSVSKWRLQHEGQGRNTA
MGSDKIHHHHHHMTAPFSTQLKRCTTCLLPETHETLVLDSEGVCNICRAQEVKAEINWEERLVHLDKLVAEYRGNYRYDCLIPFSGGKDSTWTLYYLMNRYPGIKPLVVRFNHGFLRPNLRANCDRVFRKLGVDVHDFSPSWKVVQRLMLQSFLEKGDFCWHCHTGIFAYPMQVAIKEQVPLIFWGEPSAEYTAYYNYDQAEEVDEERFNRYVNLGISAEDMLVRLDGYLDERDVEPFRYPPLKELRQLGYRSVCLGSYIPWDVKMQVGKIREELGWKGDLVENVPEDFNYEKIECWMQGVRDYIKYIKRGYTRPTHLAAIDLRNNRISKEEAKAMITQFEGRRPPSLDLFLDYVGLDEEQFYTIAMGHQVSPWQFDPDSIKSGPKTPDFEDWLRGDGLDLVDAEDQLGRWADSCSSCSSSSSCSGG
MGSDKIHHHHHHMTDAPGPLEPLGSTGGPILDRPAFERLTTTHRRALKLHCYRMMGSLHEADDLVQETFLKAWRGRAQFDGRGSPRGWLYTIATNACLNAIKARSSAHRILEEPARPPSEGRAAAGLAAELSWLEPYPDAELPDLIDGEPGPDARYETSEAVRLAFVAAIQLLPPRQRASLLLCDVLGWSALETAQLLGGSTASVNSALQRARATLGERYPQGRPQQRSQPNPEEGVLLERYISAWQAANLDGFIALLREDATYHMPPWRDWYRGRPAIHGFFKTVWGNFAGYRAVATRANGQPAVAIYARRHQEPEWRAQSLHVIEPAYGAIASLTVYVAPLGPGLFAAFGLPPVWSGPQA
MGSDKIHHHHHHMTDHVIAHAFSYRHASRRKPALVDLTLKISRGERVLLLGASGSGKSTLLAAIAGVLADEDGEHSGELQVSGTPGMVLQDPDSQVISSRVGDDVAFGCENMCVPRDQIWPRVTQALAQVGLDLPLDHPTSELSGGQKQRLALAGVIAMGADIVLLDEPTANLDPDGVREVVSNISRAVETTGATMIVVEHRVSTWLDHVDRIIALGPDSRVLADGPARDVIAKHGRELSELGIWVPENDPQLPAALTPTHSDTAIHARELAVGWNQPLGTYGFDIPAGASTVITGANGKGKSTLLLTLAGLLPAHSGRVEVAHNIARGLHTDPLRWKSKELSSRFGFVFQDPEHQFVAATVREEMRVGLHDHNHLARADLLLERLRLDHLAEANPFTLSGGQKRRLSVATILVNTPDVVFLDEPTFGQDRTTFIELVTLLRELTDAGTTVVSITHDELYRRCLGDKEIAL
MGSDKIHHHHHHMTDKLSPRGRPLYLGSRGRHTRFSRIADSVADSFNLSKELTTATLLAAVNSALRGKASITINQDWDEPVNAFFLVCAESGGGKSPSNNFFKQPQLNFQTEWNEQNKNLYLRASVDKKYFAQKLKKHTQQAAELDYGNPKALEQYHAETTRLTEAYEKALRCQPLELFVDDVTNKSLIEAMSRQDGRIAIMEPEVSAFRHIVRAKEVSPILDTILKSFSGERIQLNRAGEPALTIERPILALNIMVQPPIMMQLAKNKAIQGRGILGRFFVTIVEKPRYSRFRHDPIEVPPEVRFEYQDTIYKILTTVEKSKDLLSFSLSDEATEAWLAVKDDVESSIPHNPPPGYGEWKAKAGKHLLHLACLVHIFEHQASNTIIDKRSFELAELLFNFFDKNMWSMLRFMYPEIDFLVAVKALSSGKLYNMGEFSARDMQRALGTYNSTQIAQGIDWLLDNRAIDPIEHRHIENSAKTTMHVGRKKSPTYKIIDAEWHYLRDELL
MGSDKIHHHHHHMTDLAPILAEADKALPQSLDRLFDLVRIASISTDPAYKADCRKAAEWLAQELKGLGFNASVRDTPGHPMVVGHHDADRPDAPHVLFYGHYDVQPVDPLDLWENDPFEPAIKEIEPGRKVITGRGTSDDKGQLMTFVEACRAYKAVHGGLPIKITILFEGEEESGSPSLKPFLAANEDELKCDFALVCDTGMWDRETPAIAAALRGLVGEEVTVTAADRDLHSGLFGGAAANPIHILAKVLADLHDETGRVTIDGFYEGVEETPVNIKASWEKLGRTADKFLNDVGLSIPSGETGRSVLELTWARPTAEVNGITGGYTGEGFKTVIASKASAKVSFRLVGEQDPAKIRENFRAFVKARIPGDCSVEFHEHGASPAIQLPYDSPFLTKAKSALSDEWPKPAEVIGMGGSIPIVGDFQTMLGMDSLLVGFGLVDDRIHSPNEKYELESFHKGIRSWIRILDALAH
MGSDKIHHHHHHMTDLIYNDPDFVQFYDIENQDGRADFDYCVRLARDGGSVLDLGCGTGQLAAEMAQGCNVTGVDPASAMLDVARRRTGGDKVDWVVADARTVRLGRRFDLVLLTGHVFQVFLTDEDQRAVLRTIAEHLGPGGRFIFDTRNPAVEAWLEWTPQRSERMVEHPSLGTVRAWYDADWDAASAVVTYSTFYEIPGGRPILGAESKIAFPKKQDLAGMLDDAGLLVEQWLGDWQGEPYADTSPEIIPIGRLR
